Assay [1] deals with T1, Protein phosphatase 2A1 (PP2A1) (Homo sapiens, UniProt P67775).
T1 construct: purchased Biomol Research Laboratories (Plymouth Meeting, Pa.)
Kind of assay: Protein phosphatase assay, TR-FRET detection with [Eu3+]GST-PDZ, inhibition experiments. In kind it is biochemical. Conditions: PP2A1 15 pM; substrate biotin-HRRAARYLEpSAV-OH; quenched after 60 min; condition Dilution. How it is done: (§1) Assays were carried out in 96-well black, low binding, Microfluor2 plates (Dynex, Va.). Assay plates were read using a Victor^2V microplate analyzer (Perkin Elmer Wallac (Turku, Finland)), with 337 nm excitation. Fluorescence emission was measured at 665 nm for FRET signal and 615 nm for Eu^3+ chelate, and results are expressed as the ratio of fluorescence intensities, FI665nm/FI615 nm.
For the initial time courses, 20 μl of biotin-HRRAARYLEpSAV-OH (SEQ. ID No. 4) (100 nM in phosphatase buffer: 50 mM Tris, pH 7.4, 10% glycerol, 14 mM β-mercaptoethanol, 0.2 mg/ml BSA) was mixed with 20 μl of PP2A1 (2× in phosphatase buffer), and the reaction solution was incubated at 32° C. At different time points, 40 μl aliquots were quenched with […] of a 5×TR-FRET mixture of Cantharidic Acid (5 μM, [Eu^3+]GST-PDZ (1.6 nM), and [665]SA (15.6 nM) in PBSTB, for 60 min, at 25° C., and read.
For the inhibition experiments, 2 μl of inhibitor were added to 20 μl PP2A1 (30 pM in phosphatase buffer), and the reaction was initiated by addition of 20 μl of peptide substrate (100 nM in phosphatase buffer). The reaction was quenched after 60 min with the addition of 10 μl of 5×TR-FRET quenching/detection mixture, as described above. Background was measured from a reaction mixture with substrate, detection mixture and no enzyme.
For orientation: TR-FRET usually uses a lanthanide donor and a delayed reading to cut background.

The target in assay [2] is Biotin-…-OH. Kind of assay: TR-FRET, 4 nM product peptide plus 36 nM masked substrate biotin-…-NH2 (Asp-N pair); data not shown.
For assay [3], the target named is Biotin-…-OH. Kind of assay: TR-FRET, 4 nM product peptide plus 36 nM masked substrate biotin-…pSAV-OH; optimal [Eu3+]GST-PDZ 0.3 nM and [XL665]SA 3.1 nM.
Assay [4] deals with Biotin-…-OH. Put plainly: TR-FRET, 4 nM product peptide plus 36 nM masked substrate biotin-…-OH (carboxypeptidase B pair); data not shown.
Assay [5] deals with Porcine carboxypeptidase B (porcine) (UniProt P09955). Put plainly: cell-based or functional assay.
Assay [6] concerns the target T2, Porcine carboxypeptidase B (CPB) (Sus scrofa, UniProt P09955).
T2 construct: purchased Sigma (St. Louis, Mo.)
T2 sequence (P09955 111-416): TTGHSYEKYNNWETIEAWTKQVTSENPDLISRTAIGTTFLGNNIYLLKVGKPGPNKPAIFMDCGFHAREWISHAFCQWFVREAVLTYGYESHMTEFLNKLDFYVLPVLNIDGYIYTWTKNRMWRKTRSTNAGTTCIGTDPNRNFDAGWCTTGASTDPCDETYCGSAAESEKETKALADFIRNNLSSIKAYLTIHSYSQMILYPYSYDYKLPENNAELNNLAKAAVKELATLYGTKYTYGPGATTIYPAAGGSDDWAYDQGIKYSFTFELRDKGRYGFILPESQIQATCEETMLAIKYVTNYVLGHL
Put plainly: Carboxypeptidase B assay, TR-FRET detection with [Eu3+]GST-PDZ, inhibition experiments. The class given is biochemical. Conditions: CPB 100 pM; substrate biotin-HRRSARYLESSVR-OH; quenched after 30 min; condition Dilution. How it is done:
as §1
For the initial time courses, 20 μl of biotin-HRRSARYLESSVR-OH (SEQ. ID No. 7), (100 nM in 10 mM phosphate, 150 mM NaCl, 0.05% tween-20, 0.1% BSA (PBSTB)) was mixed with 20 μl of CPB (2× in PBSTB), and the reaction quenched with 10 μl of a 5×TR-FET mixture of PCI (1 μM, [Eu^3+]GST-PDZ (6.25 nM), and [X1665]SA (62.5 nM) in PBSTB, for 60 min, at 25° C., and read.
For the inhibition experiments, 2 Ill of inhibitor was added to 20 μl CPB (200 pM in PBSTB), and the reaction was initiated by addition of 20 μl peptide substrate (100 nM in PBSTB). The reaction was quenched after 30 min with the addition of 10 μl of 5×TR-FRET quenching/detection mixture, as described above. Background was measured from a reaction mixture with substrate, detection mixture and no enzyme.

For 5 compounds, IC50, signal-to-background and IC50 (inhibition of CPB hydrolysis of biotin-…-OH, TR-FRET read-out) results are on record in patent publication US20050164311A1, “Biological assay detection method” (priority 2001, published 2005).

Some results are limits rather than exact numbers.

T1 sequence (P63151 whole entry): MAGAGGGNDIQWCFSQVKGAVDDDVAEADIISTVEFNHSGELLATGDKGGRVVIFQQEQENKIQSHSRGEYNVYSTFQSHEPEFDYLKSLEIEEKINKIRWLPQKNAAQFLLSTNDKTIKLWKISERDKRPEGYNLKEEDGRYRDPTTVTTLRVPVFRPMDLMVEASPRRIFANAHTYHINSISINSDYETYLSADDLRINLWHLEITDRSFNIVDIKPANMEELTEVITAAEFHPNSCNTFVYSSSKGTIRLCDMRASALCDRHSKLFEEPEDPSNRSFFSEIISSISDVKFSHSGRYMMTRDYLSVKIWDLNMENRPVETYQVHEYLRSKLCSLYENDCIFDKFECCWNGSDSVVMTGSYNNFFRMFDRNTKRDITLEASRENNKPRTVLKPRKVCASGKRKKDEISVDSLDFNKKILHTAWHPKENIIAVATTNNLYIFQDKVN
T1 sequence (P30153 whole entry, further chain): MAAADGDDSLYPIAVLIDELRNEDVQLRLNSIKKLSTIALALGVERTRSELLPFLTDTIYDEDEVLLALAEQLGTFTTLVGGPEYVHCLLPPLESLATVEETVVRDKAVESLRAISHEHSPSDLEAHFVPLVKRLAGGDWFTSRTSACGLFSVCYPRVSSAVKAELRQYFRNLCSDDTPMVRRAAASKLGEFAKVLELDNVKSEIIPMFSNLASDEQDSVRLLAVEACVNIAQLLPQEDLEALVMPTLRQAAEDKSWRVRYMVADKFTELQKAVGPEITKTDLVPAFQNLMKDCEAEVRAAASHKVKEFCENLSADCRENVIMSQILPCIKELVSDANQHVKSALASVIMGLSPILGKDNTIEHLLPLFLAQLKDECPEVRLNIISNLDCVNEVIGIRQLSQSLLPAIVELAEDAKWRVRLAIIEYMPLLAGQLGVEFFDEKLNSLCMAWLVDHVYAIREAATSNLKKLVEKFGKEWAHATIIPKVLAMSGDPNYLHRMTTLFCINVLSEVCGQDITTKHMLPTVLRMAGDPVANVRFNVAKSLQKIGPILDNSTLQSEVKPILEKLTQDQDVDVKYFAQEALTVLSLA
T1 sequence (P67775 whole entry): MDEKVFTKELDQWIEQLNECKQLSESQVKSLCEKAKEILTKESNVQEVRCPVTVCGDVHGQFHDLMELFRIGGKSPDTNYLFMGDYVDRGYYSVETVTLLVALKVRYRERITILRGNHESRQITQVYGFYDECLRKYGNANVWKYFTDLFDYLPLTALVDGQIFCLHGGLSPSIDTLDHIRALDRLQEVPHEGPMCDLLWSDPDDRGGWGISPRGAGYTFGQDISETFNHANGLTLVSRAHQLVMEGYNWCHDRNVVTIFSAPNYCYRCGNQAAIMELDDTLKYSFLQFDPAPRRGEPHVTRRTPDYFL

`CC1(C(=O)O)C2CCC(O2)C1(C)C(=O)O` (stereo not shown) [Cantharidic Acid, cantharidic acid] displayed a half-maximal inhibitory concentration (IC50) in assay [1] of 56 nM. As for “[Eu3+]GST-PDZ (GST fused to PDZ module 3 of PSD-95, labeled with Eu3+ chelate ITC) (from UniProt P31016 300-402)”, the signal-to-background in the assay with Biotin-…-OH [2], with Biotin-…-OH [3] and in the assay with Biotin-…-OH [4] was over 10 fold each time. For the compound “potato carboxypeptidase inhibitor (from UniProt P01075 1-39)”, the IC50 (inhibition of CPB hydrolysis of biotin-…-OH, TR-FRET read-out) in assay [5] came out at 10 nM. On to `C=C1[C@@H](O)[C@@H]2O[C@]3(CC[C@H](/C=C/[C@@H](C)[C@@H]4CC(C)=C[C@@]5(O[C@H](C[C@@](C)(O)C(=O)O)CC[C@H]5O)O4)O3)CC[C@H]2O[C@@H]1[C@@H](O)C[C@H](C)[C@H]1O[C@@]2(CCCCO2)CC[C@H]1C` [Okadaic Acid, okadaic acid], for which the IC50 in assay [1] stood at 0.015 nM. As to “PCI: potato carboxypeptidase inhibitor from Sigma; the abbreviation list calls it protein carboxypeptidase inhibitor (QQHADPICNKPCKTHDDCSGAWFCQACWNSARTCGPYVG)”, the IC50 in assay [6] came to 10 nM.

A word on the IC50: it is the point on the concentration scale where inhibition reaches its midpoint. Read a high IC50 as weaker potency.
